Source: the nanobody polyreactivity screen of Harvey et al. (2022)

Assay: yeast display, Sf9 membrane polyspecificity reagent, FACS + sequencing; frameworks hold sequencing errors
In short: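 Genes from sorted yeast were amplified by colony PCR, read by MiSeq 2 × 250 sequencing and filtered on CDR length. These cells carried a synthetic nanobody library in Saccharomyces cerevisiae BJ5465 and were sorted by FACS into low and high (top ~1%) gates on anti-HA and streptavidin fluorescence. Polyreactivity is labelled according to the gate of origin.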

Sequence	polyreactivity (PSR sort gate)
QVQLVESGGGLVQAGGSLRLSCAASGSIFWGNAMGWYRPAPGKERELVASISDSGGSTYADSVKGRFTISRDNAKNTVYLQMNSLKPEDTAVYYCAADDWYSAGIRNWYYGGYDYWGQGTQVTVSS	low polyreactivity
QVQLVESGGRLVQAGGSLRLSCSASGLTFQYYAMGWYRQAPGKERELVATINSGGSTKYADSVKGRFTISRDNAKNTVYLQMNRLKPEDTAVYYCAADPYRRYRRPSRYGYWGQGTQVTVSS	high polyreactivity
QVQLVESGGGLVQAGGSLRLSCAASGNIFSVYAMVWYRPAPGKERELVAAISSSGGRTYYADSVKGRFTISRDNAKNTVYLQMNSLKPEDTAVYYCAARSYTGQFGYWGQGTQVTVSS	high polyreactivity
QVQLVESGGGLVQAGGSLRLSCAASGSIFHPYAMGWYRQAPGKEREFVAAITFRGSTYFADSVKGRFTISRDNAKITVYLQMNSLKPEDTAVYYCAARYHIFRRGSRNYDYWGQGTQVTVSS	high polyreactivity
QVQLVEAGGGLVQAGGSLRLSCAASGSTFKRYAMGWYRQAPGKERELVASISSGGSTNYADSVKGRFTISRDNAKNTVYLQMNSLKPEDTAVDYCAVSYRSFRYYWERYYSWGQGTQVTVSS	high polyreactivity
QVQLVESGGGLVQAGGSLRLSCAASGSTFRRYAMGWYRQAPGNERELVAAITGSGGRTYYADSVKGRFTISRDNAKNTVYLQMNSLKPEDTAVYYCAARGTHSRRRYYYWGQGTQVTVSS	high polyreactivity
QVQLVESGGGLVQAGGSLRLSCAASGRIFSSYAMGWYRQAPGKERELVAAISRGGSTYYADSVKGRFTISRDNAKNTVYLQMNSLKPEDTAVYYCAAASYSYSERRYYYWGQGTQVTVSS	high polyreactivity
QVQLVESGGGLVQAGGSLRLICAASGRIFGDNGMGWYTQAPGKERELVTYADSVKGRFTISRDNAKNTVYLQMNSLKPEDTAVYYCNKVPPRFSGLDENYWGQGTQVTVSS	low polyreactivity
QVQLVESGGGLVQAGGSLRLTCAASGFIFEEYAKGWYRPAPGKERELVAAISRRGGSTYYADSVKGRFTISRDNATNTVYLQMNSLKPEDTAVDYCATDRRYNYWGQGTQVTVSS	high polyreactivity
QVQLVESGGGLVQAGGSLRLSCAASGRTFSAYAMGWYRQATGQERELVAAISRSGGSTYYADSVKGRFTISRDNAKNTVYLQMNSLKPEDTAVYYCAAKGGSGLYNWGQGTQVTVSS	high polyreactivity
QVQLVESGGGLVQAGGSLRLSCAASGSTFSRNAMGWYRQAPGKERELVAAISRRGGSTYYADSVKGRFTISRDNAKNTVYLQMNSLKPEDTAVYYCNRDSSYKNNYDYWGQGTQVTVSS	high polyreactivity
QVQLVESGGGLVQAGGSLRLSCAASGSTFNYYTMGWYRQAPGKERELVAAISGRGSITYYADSVKGRFTISRDNAKNTVYLQMNSLKPEDTAVYYCNARYGRWQGSSGEHDYWGQGTQVTVSS	high polyreactivity
QVQLVESGGGLVQAGGSLRLSCAASGFTFQNYVMGWYRQAPGKERELVAAINSGGRTYYADSVKGRFTISRDNAKNTVYLQMNSLKPEDTAVYYCNAVQPATYKYRSHVIEYDYWGQGSQVTVSS	high polyreactivity
QVQLVESGGGLVQAGGSLRLSCAASGSILGYYAMGWYRQAPGKERELVAAISSGGSTNYADSVKGRFTISRDNAKNTVYLQMNSLKPEDTAVYYCAADRTYHGGFDYWGQGTQVTVSS	low polyreactivity
QVQLVESGGGLVQAGGSLRLSCASSGNIFRYYVMGWYRKAPGKEREFVAAITSSGGSTYYADSVKGRFTISRDNAKNTVYFQINSLKPDDSEVYYCAKDYWDPGWAEYDYWGQCTQVTVSS	low polyreactivity
QFQLVESGGGLVQAGGSLRLSCAASGSTFRHNAMGWYRQASGKEREWVATIRTSGGTTYYADSVKGRFTISRDNAKNTVYLQMNSLKPEDTAFYYCAKDALFIDGGGGYDYWGQGTQVTVSS	low polyreactivity
QVQLVESGGGLVQAGGSLRLSCAASGSIFKTYAMGWYRQAPGKERELVAAISSGGSTYYADSVKGRFTISRDNAKNTVYLELNSLKPEDTAVYYCAADPWGAFVSFASYYYWGQGTQVTVSS	low polyreactivity
QVQLVESGGGLVQAGGSLRLSCAASGRIFAPYAMGWYTQAPGKERELVAAISFSGGSTHYADSVKGRFTISRDNAKNTVYLQMNSLKPEDTAVYYCAAGWRSRLYRFGYWGQGTQVTVSS	high polyreactivity
QVQLVESGGGLVQAGGSLRLSCAASGRTFYKYAMGWYIQAPGKERELVAAISSRGGRTYYADSVKGRFTISRDNAKNTVYLQMNSLKPEDTAVYYCAADYAVEWWGNWYEYWGQGTQVTVSS	high polyreactivity
QDQLVESGGGLVQAGRSLRLSCAASGRIIKLYAMGWYRQAPGKERELVAAISKSGGNTYADSVKGRFTISRDNAKNTVYLQMNSLKPEDTAVYYCAASVQSTSDPFDYWGQGTQVTVSS	low polyreactivity
QVQLVESGGGLVQAGGSLRLSCAASGSTFYFYVMGWYRQAPGKERELVAAITWSGGRTSYADSVKGRFTISRDNAKNTVYLQMNSLKPEDTAVYYCAKDLQNSSHPSRYDYWGQGTQVTVSS	low polyreactivity
QVQLVESGGGLVQAGRSLRLSCAASGRIFRSYAMGWYRQAAGKERELVAAINYSGGNTYYADSVKGRFTISRDNAKNTVYLQLNCVKPDDTAVFYCNARGYYYSSRYGYWGQGTQVTVSS	high polyreactivity

Sequence	polyreactivity (PSR sort gate)
KVQLVESGLGLVQAGGSLRISCAASGSIFTQYTMGWYRQAHGKERELVASISDSGGSTYYADSVKGRFTISRDNAKNTVYLQMNSLKPEDTSVYYCASRHDRPRESNPYDYWGQGTQVTVSS	low polyreactivity
QVHLVESGGGLVQAGGSLRLSCAASGFIFHSYAMGWYRQAPGKERELVASISRGGGSTYYADSVKGRFTISRDNAKNTVYLQMNSLKTEDTAVYYCNAVWRSNSRFDYWGQGTQVTVSS	high polyreactivity
QVQLVESGGGLVQAGGSLRLSCAASGSTSDINAMGWYRQAPGKERELVAVITDSSNTDYADSVKGRFTISRDNAKNTVYLQMNSLKPEDTADDYCAADRDEPDPYDYWGQGTQVTVSS	low polyreactivity
QVQLVESGGGLVQAGGSLRLSCAASRRIFYWYAMGWYRQAPGKEREWVAAITWSGGSTYYADSVKGRFTISLDNAKNTVYLQMNSLKREDTAVYFCNAEVYWDVYPGLYYYDIYDYWGQGNQVTVSS	low polyreactivity
QVQLVESGGGLVQAGGSLRLSCAASGSIFDLYAMGWYRQAPGKERELVDAISSGATTNYADSVKGRFTISRDNAKNTVYLQMNSLKPEDTAVYYCAKYYRISSLYVIVSAYDYWGQGTQVTVSS	low polyreactivity
QVQLVESGGGLVQAGGSLRLSCAASGLTFSDYAMGWYRQAPGKERELVAGISSGGSTYYADSVKGRFTISRDNAENTVYLQMNSLKPEDTAVYYCAATRYNRWPIKFDYWGQGTQVTVSS	high polyreactivity
QVQLVASAGGLVQAGRSLRLSCAASGRIFSWYTMGWYRQAPGKERELVADITYSGGSTYYADSVKGRFTISRDNAKNTVYLQMNSLKPEDTAVVYCIADPRWYHFEYGYWGQGTQVTVSS	high polyreactivity
HVQLVESGGGLVQAGGSQRLSCAPSGSTFYYNAMGSYRQAPGKERELVAAISKTGGSTYYADSVKGRFTISRDYAKNTVYLQMNSLKPVDTAVYYCAAVGSRGAWARRGYWGQGTHVTVSS	high polyreactivity
QVQLVESGGGLVQAGGSLRLSCAASGSTFFDYAMGWYRQAPGKERELVAVISDGGTTTYADSVKGRFTISRDNAKNTVYLQMNSLKPVDTAVYYCAAENQDGLLVILGGYGYWGQGTQVTVSS	low polyreactivity
QVQLVESGGGLVQAGGSLPLSCAASGRIFNYYTMGWYRPAPGKERELVAAISTRGGRTYYADSVKGRFTISRDNAKNSVYFQMNSLKPEDTAVYYCARDIRIRIVYDGIYNYWGQGTQVTVSS	high polyreactivity
QVQHVESGGGLVQAGGSLRLSCAASGGIFYVNAMGWYRQEPGKERELVADITSDGVSKYYADSVKGRFTISRDNAKNTVYLQMNRLKPEDTAVYYCGGDNGGAGYYYGYVWYDYWGQGTQVTVSS	low polyreactivity
QVQLVESGGGLVQAGGSLRLSCAASGSTFAQNAMGWYILAPGKERELVAAISRRGTITNYADSVKGRFTISRDNEKITVYLQMYSLKPEDTAVYYCATRSWLLGIQGGYWGQGTQVTVSS	high polyreactivity
QLQLVETGGGLVQAGGSLRLSCASSGRTFTAYAMVWYREAAGKESELVAAITLSGGRTYYADSVKGRFTISRDNAKNTVYLQMNSLKPEDTAVYYCATDYYWGQGTQVTVSS	high polyreactivity
QVQLVESRGGLVQAGGSLRLSCAASGFTFRAYAMGWYREAPGKERELVAAISTGGGSTYYADSVKGRFTISRDNAKITVYFQMNSLKPEDTAVYYCNALPQRRYYYWGQGTHVTVSS	high polyreactivity
QVQRVDSGGGLVQAGGSLRLSCAASGSIFEWYDMVWYRQAPGTERELVAAITTGGITNYSDSVKARFTISRDNAKNTVYLQMNSLKPEDTAVYYCNADFTVEFDYWGQGTQVTVSS	low polyreactivity
QVQLVESGGGLVQAGGSLRLSCAPSGSIFQSYAMGWYRQAPGKEREMVAAITRSGGRTYYADSVKGRFTISRDNAKNTVYLQMNSLKPEDTAVYYCAAFGWGYGYWGQGTQVTVSS	high polyreactivity
QVQLVESGGGIVQAGGSLRLSCAASGLIFYTYAMGWYRQAPGKEREIVAAISRRGGSTYYADSVKGRFTISRDNAKNTVYLQMNSLKPEDTAVYYCNARGGRYGTYSHYGYWGQGTQVTVSS	high polyreactivity
QVQLVESGGGLVQAGGSLRLSCAASGIIFYLNAMGWYRQAPGKERELVAAISNGTSTNYADSVKGRFTISRDNAKNTVYLQMNSLKPEDTAVFYCAADDLRYNSRSSNYRGDYWGQGTQVTVSS	low polyreactivity
QVQLVESGVGLVQAGGSLRLSCAASGFIFRFYTMGWYRQAPGKERELVAAISGSGGRTYYADSVKGRFTISRDYANNTVYVQMNRLKPEDTEVYYCNKQFLYPSYDYWGQGTQVTVSS	high polyreactivity
QVQLVESGGGLVQAGGSLRLSCAASGTFYTYAMGWYRQAPGKERELVAAINGGGRTYYADSVKGRFTISRDNAKNTVYLQMNSLKPEDTAVYYCAARPRWSPSKYDYWGQGTQVTVSS	high polyreactivity
QVQLVESGGGIVQAGGSLRLSCAASGSTFRRYAMGWYRQAPGKERELVASISWSGGSTSYADSVKGRFTISRDNAKNTVYLQMNSLKPEDTAGYYCAAVRYYWGEYYARYAYEYWGQGTQVTVSS	high polyreactivity
